Like-named read-outs stand apart in the source and are kept apart here. Bridges are numbered along the chain shown (N, C = ends). Where no end group is shown, it is not given here. [ ]: non-standard residue; d: D form. PhLac = O=C(O)[C@@H](O)Cc1ccccc1
Assays:
Experiment in all cases: cell-based or functional assay
GLP-1 receptor [1] = molecular target: T1, GLP-1 receptor (Homo sapiens, UniProt P43220)
glucagon receptor [2] = molecular target: glucagon receptor (UniProt P47871)
GLP-1 receptor [3] = molecular target: T1, GLP-1 receptor; remark: listed apart in the source
glucagon receptor [4] = molecular target: glucagon receptor (UniProt P47871); remark: listed apart in the source
GLP-1 receptor [5] = molecular target: T2, GLP-1 receptor (UniProt P43220 24-463, limits assumed)
glucagon receptor [6] = molecular target: glucagon receptor (UniProt P47871 26-477)
Chain of glucagon receptor (UniProt P47871 26-477) (P47871 26-477 limits assumed): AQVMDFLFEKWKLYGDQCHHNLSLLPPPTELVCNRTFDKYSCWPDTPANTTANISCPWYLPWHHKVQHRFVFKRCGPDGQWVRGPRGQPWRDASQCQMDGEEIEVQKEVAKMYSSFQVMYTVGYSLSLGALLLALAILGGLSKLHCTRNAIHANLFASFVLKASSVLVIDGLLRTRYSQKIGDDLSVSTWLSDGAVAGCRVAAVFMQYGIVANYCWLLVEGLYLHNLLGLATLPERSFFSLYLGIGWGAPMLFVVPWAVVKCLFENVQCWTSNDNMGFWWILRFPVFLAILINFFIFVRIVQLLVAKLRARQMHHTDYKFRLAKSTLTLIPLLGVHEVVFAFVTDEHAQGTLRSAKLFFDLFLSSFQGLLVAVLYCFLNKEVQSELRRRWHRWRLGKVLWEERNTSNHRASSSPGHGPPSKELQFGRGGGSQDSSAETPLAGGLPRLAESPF

GLP-1 receptor [7] = molecular target: T2, GLP-1 receptor; remark: listed apart in the source

Chain of glucagon receptor (UniProt P47871) (P47871 26-477 limits assumed): as above
T1 sequence (P43220 24-463 limits assumed): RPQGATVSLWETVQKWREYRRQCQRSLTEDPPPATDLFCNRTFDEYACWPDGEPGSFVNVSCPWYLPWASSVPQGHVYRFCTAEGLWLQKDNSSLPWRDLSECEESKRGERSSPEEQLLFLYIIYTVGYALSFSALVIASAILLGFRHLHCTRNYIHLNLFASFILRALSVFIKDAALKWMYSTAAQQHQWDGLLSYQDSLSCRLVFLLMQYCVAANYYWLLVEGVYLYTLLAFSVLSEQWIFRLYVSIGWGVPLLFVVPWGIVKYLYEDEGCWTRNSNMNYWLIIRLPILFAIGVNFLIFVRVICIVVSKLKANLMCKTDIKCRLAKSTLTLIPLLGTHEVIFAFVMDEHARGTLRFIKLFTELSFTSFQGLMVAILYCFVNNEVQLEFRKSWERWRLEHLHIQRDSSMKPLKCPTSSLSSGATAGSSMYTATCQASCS

GLP-1 EC50 (GLP-1 receptor [5]) | Glucagon IC50 (glucagon receptor [6]) | GLP-1 EC50 (GLP-1 receptor [7]) | Molecule | further results
 |  |  | Glucagon (6-CEX) analog D9, K12E16(Lactam) (peptide) | GLP-1 EC50 (GLP-1 receptor [1]): 18 nM; Glucagon IC50 (glucagon receptor [2]): 828 nM; GLP-1 EC50 (GLP-1 receptor [3]): 119 nM; Glu IC50 (glucagon receptor [4]): 828 nM
289 nM | 22 nM |  | [PhLac]TSDYSKYLDERRAQDFVEWLMKT-NH2 (lactam 19-23; N-terminus assumed; SMILES CSCC[C@@H]1NC(=O)[C@H](CC(C)C)NC(=O)[C@H](Cc2c[nH]c3ccccc23)NC(=O)[C@@H](NC(=O)[C@@H](NC(=O)[C@H](Cc2ccccc2)NC(=O)[C@H](CC(=O)O)NC(=O)[C@H](CCC(N)=O)NC(=O)[C@H](C)NC(=O)[C@H](CCCNC(=N)N)NC(=O)[C@H](CCCNC(=N)N)NC(=O)[C@H](CCC(=O)O)NC(=O)[C@H](CC(=O)O)NC(=O)[C@H](CC(C)C)NC(=O)[C@H](Cc2ccc(O)cc2)NC(=O)[C@H](CCCCN)NC(=O)[C@H](CO)NC(=O)[C@H](Cc2ccc(O)cc2)NC(=O)[C@H](CC(=O)O)NC(=O)[C@H](CO)NC(=O)[C@@H](NC(=O)[C@@H](O)Cc2ccccc2)[C@@H](C)O)C(C)C)CCC(=O)NCCCC[C@@H](C(=O)N[C@H](C(N)=O)[C@@H](C)O)NC1=O) [[PLA6, D9, E16, E24K28(lactam), D28]G(6-29)] | 
151 nM | 10 to 30 nM |  | GTFTSEYSKYLDERRAKDFVQWLMDT-NH2 (lactam 13-17; N-terminus assumed; SMILES CSCC[C@H](NC(=O)[C@H](CC(C)C)NC(=O)[C@H](Cc1c[nH]c2ccccc12)NC(=O)[C@H](CCC(N)=O)NC(=O)[C@@H](NC(=O)[C@H](Cc1ccccc1)NC(=O)[C@H](CC(=O)O)NC(=O)[C@@H]1CCCCNC(=O)CC[C@H](NC(=O)[C@H](CC(=O)O)NC(=O)[C@H](CC(C)C)NC(=O)[C@H](Cc2ccc(O)cc2)NC(=O)[C@H](CCCCN)NC(=O)[C@H](CO)NC(=O)[C@H](Cc2ccc(O)cc2)NC(=O)[C@H](CCC(=O)O)NC(=O)[C@H](CO)NC(=O)[C@@H](NC(=O)[C@H](Cc2ccccc2)NC(=O)[C@@H](NC(=O)CN)[C@@H](C)O)[C@@H](C)O)C(=O)N[C@@H](CCCNC(=N)N)C(=O)N[C@@H](CCCNC(=N)N)C(=O)N[C@@H](C)C(=O)N1)C(C)C)C(=O)N[C@@H](CC(=O)O)C(=O)N[C@H](C(N)=O)[C@@H](C)O) [[E9, E16K20(lactam), D28]G(4-29)] | 
 | 10 to 30 nM | 4 nM | [PhLac]TSDYSKYLDERRAKDFVQWLMDT-NH2 (lactam 11-15) [[PLA6, D9, E16K20(lactam), D28]G(6-29)] | 
 |  | ~700 nM | FTSDYSKYLDSRRAQDFVQWLMDT (residue 1 (position 6) is phenyl lactic acid (PLA), written here as F) [PLA 6, D9, D28] | 

— US20110065633A1, “ESTER-BASED PEPTIDE PRODRUGS” (INDIANA UNIVERSITY RESEARCH AND TECHNOLOGY CORPORATION, priority 2008, published 2011)
